# Results: article PMC4340503 (Nature, 2008)
# Where no end group is shown, it is not given here. [ ]: non-standard residue; d: D form. pS = N[C@@H](COP(=O)(O)O)C(=O)O
# Molecular target: σ2 subunit of the AP2 core (σ2-adaptin 1-143) (mouse, UniProt P62743 1-142)
# Experiment: crystal structure
# Sequence of σ2 subunit of the AP2 core (σ2-adaptin 1-143) (P62743 whole entry, looked up, tested part not stated): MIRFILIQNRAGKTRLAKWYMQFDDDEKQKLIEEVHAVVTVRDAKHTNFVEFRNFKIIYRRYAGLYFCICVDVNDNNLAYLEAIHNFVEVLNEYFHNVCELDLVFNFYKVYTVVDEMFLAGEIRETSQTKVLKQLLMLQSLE
binder,measurement,value
"RM[pS]QIKRLLSE [CD4 dileucine peptide RM(phosphoS)QIKRLLSE (Q peptide), as co-crystallised]",binding result,binds
